The results in this text go back to patent US20220033483A1 (GUAGNDONG FEIPENG BIOLOGICAL, published 2022).

For orientation: Kd means the free concentration of one partner at which half of the binding sites on the other are occupied at equilibrium, for simple one-to-one binding. One may read the koff as the rate constant with which the complex falls apart. The term kon denotes the rate constant with which the complex forms.

Where a chain is given by its changes, count along the chain named.

To fix the notation:
B1: Mutation 4 (antibody, V domains shown)
VH: QVQLQQSGTELAKPGASVKFSCKASNYTFSTYWMYWIKQRPGQGLEWIGYLNPSSGHTKYNQRFKDKATLTADKSSSTAYMQLNSLTSEDSAVYYCARKYFGPFNMDYWGQGTSVTVSS
VL: EIFLTQSPAIMSASPGEKVTMTCSASTTVSYEHWYQQKSGTSPKRWLYDQSKIASGIPVRFSGSGSGTSYSLTISSMEAEDAATYYCQVWSTQPYTFGGGTKLEIKR
notes: other CDR sites as WT
B2: Mutation 5 (antibody, V domains shown)
VH: B1 VH with N26W, K59V, N105S
VL: B1 VL with E32S, Q50Y, V89E
notes: other CDR sites as WT
B3: Mutation 1-56 (antibody, V domains shown)
VH: B1 VH with N26G, S30T, K59D, K99R, F101W, N105G
VL: B1 VL with T28S, E32V, L47I, Q50T, V89Q, T92S, Q93N
B4: Mutation 1-41 (antibody, V domains shown)
VH: B1 VH with N26G, T31S, L51I, S55T, K59D, K99R, F101Y, N105G
VL: B1 VL with T28S, E32V, L47I, Q50T, V89Q, T92S
B5: Mutation 1-38 (antibody, V domains shown)
VH: B1 VH with N26G, S30T, T31S, K59D, R63K, F101Y, N105G
VL: B1 VL with T27S, E32V, Q50T, I53L, V89Q, T92S, Q93N
B6: Mutation 1-2 (antibody, V domains shown)
VH: B1 VH with N26G, S30T, T31S, L51I, K59D, K99R, F101W, N105G
VL: B1 VL with T27S, E32V, Q50T, I53L, V89Q, T92S
B7: Mutation 1-48 (antibody, V domains shown)
VH: B1 VH with N26G, T31S, S55T, K59D, K99R, F101W, N105G
VL: B1 VL with T27S, E32V, L47I, Q50T, V89Q, Q93N
B8: Mutation 1-51 (antibody, V domains shown)
VH: B1 VH with N26G, S30T, L51I, S55T, K59D, K99R, F101Y, N105G
VL: B1 VL with T28S, E32V, L47I, Q50T, V89Q, T92S
B9: Mutation 1-43 (antibody, V domains shown)
VH: B1 VH with N26G, S30T, T31S, L51I, S55T, K59D, R63K, N105G
VL: B1 VL with T28S, E32V, L47I, Q50T, I53L, V89Q
B10: Mutation 1-39 (antibody, V domains shown)
VH: B1 VH with N26G, S30T, S55T, K59D, R63K, F101W, N105G
VL: B1 VL with T28S, E32V, L47I, Q50T, I53L, V89Q
B11: Mutation 1-45 (antibody, V domains shown)
VH: B1 VH with N26G, T31S, S55T, K59D, F101W, N105G
VL: B1 VL with T27S, E32V, Q50T, I53L, V89Q, T92S
B12: Mutation 1-11 (antibody, V domains shown)
VH: B1 VH with N26G, S30T, T31S, L51I, K59D, R63K, F101W, N105G
VL: B1 VL with T28S, E32V, L47I, Q50T, I53L, V89Q
B13: Mutation 1-52 (antibody, V domains shown)
VH: B1 VH with N26G, S30T, L51I, S55T, K59D, K99R, F101W, N105G
VL: B1 VL with T28S, E32V, L47I, Q50T, V89Q, T92S, Q93N
B14: Mutation 1-3 (antibody, V domains shown)
VH: B1 VH with N26G, S30T, L51I, S55T, K59D, R63K, N105G
VL: B1 VL with T28S, E32V, L47I, Q50T, I53L, V89Q, T92S, Q93N
B15: Mutation 1-46 (antibody, V domains shown)
VH: B1 VH with N26G, S30T, T31S, K59D, R63K, K99R, N105G
VL: B1 VL with T28S, E32V, L47I, Q50T, I53L, V89Q, T92S, Q93N
B16: Mutation 1-33 (antibody, V domains shown)
VH: B1 VH with N26G, T31S, L51I, S55T, K59D, R63K, N105G
VL: B1 VL with T28S, E32V, L47I, Q50T, V89Q, T92S, Q93N
B17: Mutation 1-49 (antibody, V domains shown)
VH: B1 VH with N26G, S30T, K59D, R63K, N105G
VL: B1 VL with T28S, E32V, Q50T, I53L, V89Q, T92S
B18: Mutation 1-50 (antibody, V domains shown)
VH: B1 VH with N26G, S30T, T31S, S55T, K59D, R63K, K99R, F101W, N105G
VL: B1 VL with E32V, L47I, Q50T, I53L, V89Q, T92S, Q93N
B19: Mutation 1-35 (antibody, V domains shown)
VH: B1 VH with N26G, S30T, L51I, S55T, K59D, R63K, K99R, F101W, N105G
VL: B1 VL with T27S, T28S, E32V, L47I, Q50T, I53L, V89Q
B20: Mutation 1-42 (antibody, V domains shown)
VH: B1 VH with N26G, S30T, T31S, L51I, K59D, R63K, K99R, F101W, N105G
VL: B1 VL with T27S, E32V, Q50T, I53L, V89Q, T92S, Q93N
B21: Mutation 1-7 (antibody, V domains shown)
VH: B1 VH with N26G, S30T, S55T, K59D, R63K, K99R, F101Y, N105G
VL: B1 VL with T28S, E32V, Q50T, I53L, V89Q, Q93N
B22: Mutation 1-37 (antibody, V domains shown)
VH: B1 VH with N26G, T31S, S55T, K59D, N105G
VL: B1 VL with T28S, E32V, L47I, Q50T, I53L, V89Q
B23: Mutation 1-5 (antibody, V domains shown)
VH: B1 VH with N26G, T31S, S55T, K59D, R63K, F101W, N105G
VL: B1 VL with T27S, T28S, E32V, L47I, Q50T, V89Q, Q93N
B24: Mutation 1-6 (antibody, V domains shown)
VH: B1 VH with N26G, S30T, T31S, K59D, K99R, N105G
VL: B1 VL with T27S, E32V, Q50T, I53L, V89Q, Q93N

T1 sequence (P19429 whole entry): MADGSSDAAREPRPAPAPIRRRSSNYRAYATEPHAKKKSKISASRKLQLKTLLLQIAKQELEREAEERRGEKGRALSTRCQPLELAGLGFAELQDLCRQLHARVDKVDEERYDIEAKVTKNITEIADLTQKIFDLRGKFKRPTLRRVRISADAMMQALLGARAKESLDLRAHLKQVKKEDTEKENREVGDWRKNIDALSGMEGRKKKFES

The first assay has as its target T1, cTnI quality control product recombinant protein (human, UniProt P19429 1-210, limits assumed).
T1 construct: the assay paragraphs only say cTnI; also called cardiac troponin I; cTnI antigen
Nature of the assay: AMC biosensor, antibody on sensor. How it is done:
(§1) Operating process: it is equilibrated in Buffer 1 (PBST) for 60 s, the antibody is immobilized in an antibody solution for 300 s, incubated in Buffer 2 (PBST) for 180 s, bound in antigen solution for 420 s, dissociated in the Buffer 2 for 1200 s, 10 mM of GLY solution with pH 1.69 and Buffer 3 are used for sensor regeneration, and data is output.
B1: the Kd turned out to be 56700 nM, the koff stood at 0.0371 s⁻¹ and the kon was 654 M⁻¹ s⁻¹.
For B2, the Kd was determined as 978000 nM, the koff came to 0.687 s⁻¹ and the on-rate constant (kon) was 702 M⁻¹ s⁻¹.

The next assay concerns the target T1, cTnI quality control product …. Nature of the assay: AMC biosensor, antibody on sensor. The source holds these as a separate data set. How it is done:
as §1
Take B3: the Kd is 6.07 nM, the koff came to 8.86e-05 s⁻¹ and the kon came out at 14600 M⁻¹ s⁻¹.
For B4, the Kd came to 3.27 nM, the koff amounted to 6.06e-05 s⁻¹ and the kon stood at 18500 M⁻¹ s⁻¹.
As for B5, the Kd stood at 7.3 nM, the koff was 0.000223 s⁻¹ and the kon was 30500 M⁻¹ s⁻¹.
On to B6, for which the Kd worked out at 7.96 nM, the koff was determined as 0.000302 s⁻¹ and the kon turned out to be 37900 M⁻¹ s⁻¹.
For B7, in that order: 6.6 nM, 8.58e-05 s⁻¹ and 13000 M⁻¹ s⁻¹.
As to B8, the Kd amounted to 0.81 nM, the koff stood at 2.15e-05 s⁻¹ and the kon was found to be 26500 M⁻¹ s⁻¹.
For B9, the Kd was determined as 12.9 nM, the koff is 0.000368 s⁻¹ and the kon worked out at 28600 M⁻¹ s⁻¹.
B10: the dissociation constant Kd worked out at 1.03 nM, the koff came out at 2.79e-05 s⁻¹ and the on-rate (kon) amounted to 27000 M⁻¹ s⁻¹.
Turning to B11, the Kd was determined as 3.7 nM, the koff came to 9.65e-05 s⁻¹ and the kon stood at 26100 M⁻¹ s⁻¹.
With B12, the Kd came to 0.221 nM, the off-rate constant (koff) is 4.49e-06 s⁻¹ and the kon came out at 20300 M⁻¹ s⁻¹.
As to B13, the Kd is 1.01 nM, the koff worked out at 1.38e-05 s⁻¹ and the kon turned out to be 13600 M⁻¹ s⁻¹.
In the case of B14, the dissociation constant Kd worked out at 9.45 nM, the koff worked out at 0.000181 s⁻¹ and the kon amounted to 19200 M⁻¹ s⁻¹.
For the molecule B15, the Kd turned out to be 5.57 nM, the off-rate constant (koff) was 0.000118 s⁻¹ and the kon worked out at 21200 M⁻¹ s⁻¹.
Consider B16, for which the Kd amounted to 2.75 nM, the koff was determined as 9.53e-05 s⁻¹ and the kon is 34700 M⁻¹ s⁻¹.
For B17, in that order: 5.94 nM, 0.000195 s⁻¹ and 32800 M⁻¹ s⁻¹.
Take B18: the dissociation constant Kd is 1.09 nM, the koff amounted to 1.11e-05 s⁻¹ and the kon came to 10200 M⁻¹ s⁻¹.
Take B19: the Kd is 2.6 nM, the dissociation rate constant (koff) turned out to be 4.92e-05 s⁻¹ and the kon is 18900 M⁻¹ s⁻¹.
Consider B20, for which the dissociation constant Kd is 7.37 nM, the koff amounted to 0.000362 s⁻¹ and the kon worked out at 49100 M⁻¹ s⁻¹.
On to B21, for which the Kd stood at 2.92 nM, the koff was 4.05e-05 s⁻¹ and the kon was 13900 M⁻¹ s⁻¹.
For B22, in that order: 8.01 nM, 0.000268 s⁻¹ and 33400 M⁻¹ s⁻¹.
For B23, in that order: 0.238 nM, 1.17e-05 s⁻¹ and 49300 M⁻¹ s⁻¹.
B24: the Kd was found to be 2.32 nM, the koff stood at 6.03e-05 s⁻¹ and the on-rate (kon) was determined as 26000 M⁻¹ s⁻¹.

The target is the same in the next assay. Nature of the assay: capture ELISA, antibody 111.111 ng/ml, cTnI 0.15 ug/ml. The protocol: (§2) After mutation, the antibody activity is detected, 1 μg/ml of goat anti-mouse IgG is diluted with coating solution to coat a microwell plate, 100 μL per well, and overnight at 4 DEG C.; on the next day, it is washed twice with washing solution, and patted dry; blocking solution (20% BSA+80% PBS) is added, 120 μL per well, 37 DEG C., and 1 h, and patted dry; a diluted cTnI monoclonal antibody is added, 100 μL/well, 37 DEG C., and 60 min; liquid in the plate is shaken off, patted dry, and […] of mouse negative blood is added for blocking, 120 μl per well, 37 DEG C., 1 h; liquid in the plate is shaken off, patted dry, a diluted cTnI antigen (0.15 μg/ml) is added, 100 μL per well, 37 DEG C., and 40 min; it is washed for 5 times with the washing solution, and patted dry; another strain of the cTnI monoclonal antibody (1:5K) labeled with HRP is added, 100 μL per well, 37 DEG C., and 30 min; color developing solution A (50 μL/well) is added, color developing solution B (50 μL/well) is added, 10 min; stop solution is added, 50 μL/well; and a OD value is read at 450 nm (refer to 630 nm) on a microplate reader.
Regarding B1, the “OD 450 nm” value came to 0.374 OD.
For the molecule B2, the “OD 450 nm” value stood at 0.247 OD.

The next assay shares this target. Nature of the assay: capture ELISA, antibody 333.333 ng/ml, cTnI 0.15 ug/ml. How it is done: as §2
(In general: In an ELISA, binding on a coated surface is turned into a signal by an enzyme label.)
Regarding B1, the “OD 450 nm” value worked out at 0.678 OD.
Regarding B2, the “OD 450 nm” value is 0.514 OD.

The target is the same in a further assay. The experiment in a line: capture ELISA, antibody 1000.000 ng/ml, cTnI 0.15 ug/ml. The protocol: as §2
Turning to B1, the “OD 450 nm” value came to 1.28 OD.
Take B2: the “OD 450 nm” value came out at 1.12 OD.
